The source of these data is patent publication US20180016354A1 (Merck KGaA, published 2018).

The assay addresses T1, EGFR (on EGFR-expressing A431 cells) (UniProt P00533 25-1210, limits assumed).
T1 construct: whole, on cells; A431 is a human cell line; also called EGFR-positive cells; EGFR-overexpressing A431 cells
The assay is described as follows: flow cytometry on A431 cells.

B1: Domain-exchanged one-armed anti-EGFR antibody (CH3-KiH domain-exchanged hu425 Fab on SEED AG heavy chain, with huFc_GA SEED) (antibody)
heavy: QVQLVQSGAEVKKPGASVKVSCKASGYTFTSHWMHWVRQAPGQGLEWIGEFNPSNGRTNYNEKFKSKATMTVDTSTNTAYMELSSLRSEDTAVYYCASRDYDYDGRYFDYWGQGTLVTVSSASTKGEPQVYTLPPSRDELTKNQVSLYCLVKGFYPSDIAVEWESNGQPENNYKTTPPVLDSDGSFFLYSKLTVDKSRWQQGNVFSCSVMHEALHNHYTQKSLSLSKSCDKTHTCPPCPAPELLGGPSVFLFPPKPKDTLMISRTPEVTCVVVDVSHEDPEVKFNWYVDGVEVHNAKTKPREEQYNSTYRVVSVLTVLHQDWLNGKEYKCKVSNKALPAPIEKTISKAKGQPFRPEVHLLPPSREEMTKNQVSLTCLARGFYPKDIAVEWESNGQPENNYKTTPSRQEPSQGTTTFAVTSKLTVDKSRWQQGNVFSCSVMHEALHNHYTQKTISLSPGK
chain: EPKSSDKTHTCPPCPAPELLGGPSVFLFPPKPKDTLMISRTPEVTCVVVDVSHEDPEVKFNWYVDGVEVHNAKTKPREEQYNSTYRVVSVLTVLHQDWLNGKEYKCKVSNKALPAPIEKTISKAKGQPREPQVYTLPPPSEELALNELVTLTCLVKGFYPSDIAVEWLQGSQELPREKYLTWAPVLDSDGSFFLYSILRVAAEDWKKGDTFSCSVMHEALHNHYTQKSLDRSPGK
light: DIQMTQSPSSLSASVGDRVTITCSASSSVTYMYWYQQKPGKAPKLLIYDTSNLASGVPSRFSGSGSGTDYTFTISSLQPEDIATYYCQQWSSHIFTFGQGTKVEIKRTVAEPQVYTLPPSRDELTKNQVSLTCLVKGFYPSDIAVEWESNGQPENNYKTTPPVLDSDGSFFLTSKLTVDKSRWQQGNVFSCSVMHEALHNHYTQKSLSLSGEC
notes: One Fab arm only (monovalent); also called One-armed CH3 domain-exchanged anti-EGFR antibody; one-armed domain-exchanged anti-EGFR antibody
B1: the binding result is recorded as “binds”.

B2: one-armed anti-EGFR SEED antibody with Charge pair CH3 domain-exchanged Fab, Variant 1 (antibody)
heavy: QVQLVQSGAEVKKPGASVKVSCKASGYTFTSHWMHWVRQAPGQGLEWIGEFNPSNGRTNYNEKFKSKATMTVDTSTNTAYMELSSLRSEDTAVYYCASRDYDYDGRYFDYWGQGTLVTVSSASTKGEPQVYTLPPSRKEMTKNQVSLTCLVKGFYPSDIAVEWESNGQPENNYKTTPPVLKSDGSFFLYSKLTVDKSRWQQGNVFSCSVMHEALHNHYTQKSLSLSKSCDKTHTCPPCPAPELLGGPSVFLFPPKPKDTLMISRTPEVTCVVVDVSHEDPEVKFNWYVDGVEVHNAKTKPREEQYNSTYRVVSVLTVLHQDWLNGKEYKCKVSNKALPAPIEKTISKAKGQPFRPEVHLLPPSREEMTKNQVSLTCLARGFYPKDIAVEWESNGQPENNYKTTPSRQEPSQGTTTFAVTSKLTVDKSRWQQGNVFSCSVMHEALHNHYTQKTISLSPGK
light: DIQMTQSPSSLSASVGDRVTITCSASSSVTYMYWYQQKPGKAPKLLIYDTSNLASGVPSRFSGSGSGTDYTFTISSLQPEDIATYYCQQWSSHIFTFGQGTKVEIKRTVAEPQVYTLPPSREEMTKNQVSLTCLVKGFYPSDIAVEWESNGQPENNYDTTPPVLDSDGSFFLYSDLTVDKSRWQQGNVFSCSVMHEALHNHYTQKSLSLSGEC
chain: EPKSSDKTHTCPPCPAPELLGGPSVFLFPPKPKDTLMISRTPEVTCVVVDVSHEDPEVKFNWYVDGVEVHNAKTKPREEQYNSTYRVVSVLTVLHQDWLNGKEYKCKVSNKALPAPIEKTISKAKGQPREPQVYTLPPPSEELALNELVTLTCLVKGFYPSDIAVEWLQGSQELPREKYLTWAPVLDSDGSFFLYSILRVAAEDWKKGDTFSCSVMHEALHNHYTQKSLDRSPGK
notes: hu425 Fv; one Fab arm only; also called Charge pair variant 1
As to B2, the binding result is given as “binds”.

B3: one-armed anti-EGFR SEED antibody with Charge pair CH3 domain-exchanged Fab, Variant 2 (antibody)
heavy: QVQLVQSGAEVKKPGASVKVSCKASGYTFTSHWMHWVRQAPGQGLEWIGEFNPSNGRTNYNEKFKSKATMTVDTSTNTAYMELSSLRSEDTAVYYCASRDYDYDGRYFDYWGQGTLVTVSSASTKGEPQVYTLPPSREEMTKNQVSLTCLVKGFYPSDIAVEWESNGQPENNYDTTPPVLDSDGSFFLYSDLTVDKSRWQQGNVFSCSVMHEALHNHYTQKSLSLSKSCDKTHTCPPCPAPELLGGPSVFLFPPKPKDTLMISRTPEVTCVVVDVSHEDPEVKFNWYVDGVEVHNAKTKPREEQYNSTYRVVSVLTVLHQDWLNGKEYKCKVSNKALPAPIEKTISKAKGQPFRPEVHLLPPSREEMTKNQVSLTCLARGFYPKDIAVEWESNGQPENNYKTTPSRQEPSQGTTTFAVTSKLTVDKSRWQQGNVFSCSVMHEALHNHYTQKTISLSPGK
light: DIQMTQSPSSLSASVGDRVTITCSASSSVTYMYWYQQKPGKAPKLLIYDTSNLASGVPSRFSGSGSGTDYTFTISSLQPEDIATYYCQQWSSHIFTFGQGTKVEIKRTVAEPQVYTLPPSRKEMTKNQVSLTCLVKGFYPSDIAVEWESNGQPENNYKTTPPVLKSDGSFFLYSKLTVDKSRWQQGNVFSCSVMHEALHNHYTQKSLSLSGEC
chain: EPKSSDKTHTCPPCPAPELLGGPSVFLFPPKPKDTLMISRTPEVTCVVVDVSHEDPEVKFNWYVDGVEVHNAKTKPREEQYNSTYRVVSVLTVLHQDWLNGKEYKCKVSNKALPAPIEKTISKAKGQPREPQVYTLPPPSEELALNELVTLTCLVKGFYPSDIAVEWLQGSQELPREKYLTWAPVLDSDGSFFLYSILRVAAEDWKKGDTFSCSVMHEALHNHYTQKSLDRSPGK
notes: hu425 Fv; one Fab arm only; also called Charge pair variant 2
For B3, the binding result is given as “binds”.

B4: one-armed anti-EGFR SEED antibody with KiH2 CH3 domain-exchanged Fab, Variant 1 (antibody)
heavy: QVQLVQSGAEVKKPGASVKVSCKASGYTFTSHWMHWVRQAPGQGLEWIGEFNPSNGRTNYNEKFKSKATMTVDTSTNTAYMELSSLRSEDTAVYYCASRDYDYDGRYFDYWGQGTLVTVSSASTKGEPQVYTLPPSRDELTKNQVSLWCLVKGFYPSDIAVEWESNGQPENNYKTTPPVLDSDGSFFLYSKLTVDKSRWQQGNVFSCSVMHEALHNHYTQKSLSLSKSCDKTHTCPPCPAPELLGGPSVFLFPPKPKDTLMISRTPEVTCVVVDVSHEDPEVKFNWYVDGVEVHNAKTKPREEQYNSTYRVVSVLTVLHQDWLNGKEYKCKVSNKALPAPIEKTISKAKGQPFRPEVHLLPPSREEMTKNQVSLTCLARGFYPKDIAVEWESNGQPENNYKTTPSRQEPSQGTTTFAVTSKLTVDKSRWQQGNVFSCSVMHEALHNHYTQKTISLSPGK
light: DIQMTQSPSSLSASVGDRVTITCSASSSVTYMYWYQQKPGKAPKLLIYDTSNLASGVPSRFSGSGSGTDYTFTISSLQPEDIATYYCQQWSSHIFTFGQGTKVEIKRTVAEPQVYTLPPSRDELTKNQVSLSCAVKGFYPSDIAVEWESNGQPENNYKTTPPVLDSDGSFFLVSKLTVDKSRWQQGNVFSCSVMHEALHNHYTQKSLSLSGEC
chain: EPKSSDKTHTCPPCPAPELLGGPSVFLFPPKPKDTLMISRTPEVTCVVVDVSHEDPEVKFNWYVDGVEVHNAKTKPREEQYNSTYRVVSVLTVLHQDWLNGKEYKCKVSNKALPAPIEKTISKAKGQPREPQVYTLPPPSEELALNELVTLTCLVKGFYPSDIAVEWLQGSQELPREKYLTWAPVLDSDGSFFLYSILRVAAEDWKKGDTFSCSVMHEALHNHYTQKSLDRSPGK
notes: hu425 Fv; one Fab arm only; also called KiH2 variant 1
Regarding B4, the binding result is reported as “binds”.

B5: one-armed anti-EGFR SEED antibody with Azymetric CH3 domain-exchanged Fab, Variant 1 (antibody)
heavy: QVQLVQSGAEVKKPGASVKVSCKASGYTFTSHWMHWVRQAPGQGLEWIGEFNPSNGRTNYNEKFKSKATMTVDTSTNTAYMELSSLRSEDTAVYYCASRDYDYDGRYFDYWGQGTLVTVSSASTKGEPQVYVYPPSREEMTKNQVSLTCLVKGFYPSDIAVEWESNGQPENNYKTTPPVLDSDGSFALVSKLTVDKSRWQQGNVFSCSVMHEALHNHYTQKSLSLSKSCDKTHTCPPCPAPELLGGPSVFLFPPKPKDTLMISRTPEVTCVVVDVSHEDPEVKFNWYVDGVEVHNAKTKPREEQYNSTYRVVSVLTVLHQDWLNGKEYKCKVSNKALPAPIEKTISKAKGQPFRPEVHLLPPSREEMTKNQVSLTCLARGFYPKDIAVEWESNGQPENNYKTTPSRQEPSQGTTTFAVTSKLTVDKSRWQQGNVFSCSVMHEALHNHYTQKTISLSPGK
light: DIQMTQSPSSLSASVGDRVTITCSASSSVTYMYWYQQKPGKAPKLLIYDTSNLASGVPSRFSGSGSGTDYTFTISSLQPEDIATYYCQQWSSHIFTFGQGTKVEIKRTVAEPQVYVLPPSREEMTKNQVSLLCLVKGFYPSDIAVEWESNGQPENNYLTWPPVLDSDGSFFLYSKLTVDKSRWQQGNVFSCSVMHEALHNHYTQKSLSLSGEC
chain: EPKSSDKTHTCPPCPAPELLGGPSVFLFPPKPKDTLMISRTPEVTCVVVDVSHEDPEVKFNWYVDGVEVHNAKTKPREEQYNSTYRVVSVLTVLHQDWLNGKEYKCKVSNKALPAPIEKTISKAKGQPREPQVYTLPPPSEELALNELVTLTCLVKGFYPSDIAVEWLQGSQELPREKYLTWAPVLDSDGSFFLYSILRVAAEDWKKGDTFSCSVMHEALHNHYTQKSLDRSPGK
notes: hu425 Fv; one Fab arm only; also called hu425 CH3-Azymmetric variant 1
In the case of B5, the binding result is listed as “binds”.

B6: one-armed anti-EGFR SEED antibody with Azymetric CH3 domain-exchanged Fab, Variant 2 (antibody)
heavy: QVQLVQSGAEVKKPGASVKVSCKASGYTFTSHWMHWVRQAPGQGLEWIGEFNPSNGRTNYNEKFKSKATMTVDTSTNTAYMELSSLRSEDTAVYYCASRDYDYDGRYFDYWGQGTLVTVSSASTKGEPQVYVLPPSREEMTKNQVSLLCLVKGFYPSDIAVEWESNGQPENNYLTWPPVLDSDGSFFLYSKLTVDKSRWQQGNVFSCSVMHEALHNHYTQKSLSLSKSCDKTHTCPPCPAPELLGGPSVFLFPPKPKDTLMISRTPEVTCVVVDVSHEDPEVKFNWYVDGVEVHNAKTKPREEQYNSTYRVVSVLTVLHQDWLNGKEYKCKVSNKALPAPIEKTISKAKGQPFRPEVHLLPPSREEMTKNQVSLTCLARGFYPKDIAVEWESNGQPENNYKTTPSRQEPSQGTTTFAVTSKLTVDKSRWQQGNVFSCSVMHEALHNHYTQKTISLSPGK
light: DIQMTQSPSSLSASVGDRVTITCSASSSVTYMYWYQQKPGKAPKLLIYDTSNLASGVPSRFSGSGSGTDYTFTISSLQPEDIATYYCQQWSSHIFTFGQGTKVEIKRTVAEPQVYVYPPSREEMTKNQVSLTCLVKGFYPSDIAVEWESNGQPENNYKTTPPVLDSDGSFALVSKLTVDKSRWQQGNVFSCSVMHEALHNHYTQKSLSLSGEC
chain: EPKSSDKTHTCPPCPAPELLGGPSVFLFPPKPKDTLMISRTPEVTCVVVDVSHEDPEVKFNWYVDGVEVHNAKTKPREEQYNSTYRVVSVLTVLHQDWLNGKEYKCKVSNKALPAPIEKTISKAKGQPREPQVYTLPPPSEELALNELVTLTCLVKGFYPSDIAVEWLQGSQELPREKYLTWAPVLDSDGSFFLYSILRVAAEDWKKGDTFSCSVMHEALHNHYTQKSLDRSPGK
notes: hu425 Fv; one Fab arm only; also called hu425 CH3-Azymmetric variant 2
B6: the binding result is “binds”.
